Key:
[1] = pH-rate profile for the hydrolysis of phosphatidylcholine; type: biochemical, human; details: Q-Sepharose purified hGIII sPLA2
Text: (§1) FIG. 4 presents the enzymatic properties of hGIII sPLA2. A, Ca^2+ dependency of the hydrolysis of 1 -palmitoyl-2-(10-pyrenedecanoyl)-sn-glycerol-3- phosphomethanol vesicles by Q-sepharose purified hGIII sPLA2. B, pH dependency of the hydrolysis of phosphatidylcholne vesicles by Q-Sepharose purified gGIII sPLA2. Studies to measure the initial rate of hydrolysis of small unilamellar vesicles of phosphatidylglycerol (1-palmitoyl-2-([9,10[^3H])-palmitoyl-sn-glycero-3-phosphoglycerol in 1-palmitoyl-2-oleoyl-sn-glycero-3-phosphoglycerol at 50 Ci/mol) and phosphatidylcholine (1-palmitoyl-2-([9,10[^3H])-palmitoyl-sn-glycero-3-phosphocholine, 50 Ci/mol) were carried as described (8) using Q-Sepharose purified hGIII sPLA2. Initial rates were calculated from 3 time points in the linear portion of the product versus time curve. pH-rate profiles for the hydrolysis of phosphatidylcholine were obtained as described (8). The Ca^2+ dependency of phospholipid hydrolysis was carried out with the fluorimetric assay (described above) with 10 μM EGTA (no Ca^2+) or with CaCl2 in excess of EGTA to give 10-650 μM Ca^2+.

[2] = Initial rate of hydrolysis of small unilamellar vesicles of phosphatidylglycerol and phosphatidylcholine; type: biochemical, human; details: Q-Sepharose purified hGIII sPLA2; data not shown
Description: as §1, with “Studies” for “FIG. 4 presents the enzymatic properties of hGIII sPLA2. A, Ca^2+ dependency of the hydrolysis of 1 -palmitoyl-2-(10-pyrenedecanoyl)-sn-glycerol-3- phosphomethanol vesicles by Q-sepharose purified hGIII sPLA2. B, pH dependency of the hydrolysis of phosphatidylcholne vesicles by Q-Sepharose purified gGIII sPLA2. Studies”

B1: hGIII sPLA2: novel human secreted group III phospholipase A2, SEQ ID No. 2, expressed recombinantly in COS cells and partially purified on Q-Sepharose (protein, listed as Homo sapiens)
chain: MGVQAGLFGMLGFLGVALGGSPALRWYRTSCHLTKAVPGNPLGYLSFLAKDAQGLALIHARWDAHRRLQACSWEDEPELTAAYGALCAHETAWGSFIHTPGPELQRALATLQSQWEACRALEESPAGARKKRAAGQSGVPGGGHQREKRGWTMPGTLWCGVGDSAGNSSELGVFQGPDLCCREHDRCPQNISPLQYNYGIRNYRFHTISHCDCDTRFQQCLQNQHDSISDIVGVAFFNVLEIPCFVLEEQEACVAWYWWGGCRMYGTVPLARLQPRTFYNASWSSRATSPTPSSRSPAPPKPRQKQHLRKGPPHQKGSKRPSKANTTALQDPMVSPRLDVAPTGLQGPQGGLKPQGARWVCRSFRRHLDQCEHQIGPREIEFQLLNSAQEPLFHCNCTRRLARFLRLHSPPEVTNMLWELLGTTCFKLAPPLDCVEGKNCSRDPRAIRVSARHLRRLQQRRHQLQDKGTDERQPWPSEPLRGPMSFYNQCLQLTQAARRPDRQQKSWSQ
pH of optimal activity on phosphatidylcholine vesicles [1]: 8 pH | Activity on anionic phosphatidylglycerol vesicles versus zwitterionic phosphatidylcholine vesicles, based on initial velocities [2]: 11 fold
